According to patent US9725517B2, “Humanized monoclonal antibodies against the extracellular domain of human death receptor 5” (Institute of Basic Medical Sciences, Chinese Academy of …, priority 2012, dated 2017):

System: Jurkat, HCT116, BEL-7402 and H460 cancer cells
Assay: CCK-8 cytotoxicity assay of killing cancer cells
Format: cell-based, human
Details: summary statement; leukemia, liver cancer, colon cancer, lung cancer cells
Protocol: The assay was carried out in 96-well cell culture plates. Various concentrations (0, 0.5, 1, 2, 4, 8 μg/ml) of humanized anti-human DR5 monoclonal antibodies AD10, AD14 and AD15 were separately added into to human T-cell lymphocytic leukemia cells Jurkat (ATCC, TIB-152), colon cancer cells HCT116 (ATCC, CCL-247), liver cancer cells BEL-7402 (cell bank, Shanghai Institutes for Biological Sciences of Chinese Academy of Sciences, TCHu 10) and non-small cell lung cancer cells H460 (ATCC, HTB-177) in logarithmic growth phase, for 24 hours; parental murine anti-human DR5 monoclonal antibody (AD5-10) and human-mouse chimeric antibody zaptuximab were used as controls. According to the protocol of CCK-8 cytotoxicity detection kit (Dojindo, Gaithersburg, Md.), CCK-8 agents were added and incubated for 2 to 4 hours, the OD value was measured at 450 nm wavelength in micro-ELISA plate detector. The OD value in cell-free well was set as blank control “0”. Cell survival rate=OD value in treated well/OD value in untreated well.

B1: zaptuzumab: intact humanized monoclonal antibody against DR5 expressed in HEK293 cells and purified by affinity chromatography (antibody, chains of the INN, looked up, V domains shown)
VH: QVQLVQSGSELKKPGASVKVSCKASGYTFTDFSMNWVRQAPGQGLEWMGWINTETGEPTYADDFKGRFVFSLDTSVSTAYLQISSLKAEDTAVYYCARIDYWGQGTTVTVSS
VL: DIVMTQSPLSLPVTPGEPASISCRSSQSLVHSNGNTYLHWYLQKPGQSPQLLIYKVSNRFSGVPDRFSGSGSGTDFTLKISRVEAEDVGVYYCFQSTHVPHTFGQGTKLEIK
killing activity to cancer cells in vitro: strong killing activity to various cancer cells
